Experimental data: article PMC9090332, “Reconstitution of surface lipoprotein translocation through the Slam translocon” (eLife, 2022)

Target: T1, E. coli Skp with N-terminal 6xHis tag, purified (E. coli, UniProt P0AEU7 21-161)
T1 sequence (looked up): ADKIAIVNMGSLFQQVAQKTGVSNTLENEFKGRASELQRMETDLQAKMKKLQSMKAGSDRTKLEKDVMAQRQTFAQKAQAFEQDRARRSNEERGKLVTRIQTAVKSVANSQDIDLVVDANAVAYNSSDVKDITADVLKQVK
Test: cell-based or functional assay

B1: Moraxella catarrhalis transferrin binding protein B, C-terminal flag-tag (natural protein)
chain: CGGSGGSNPPAPTPIPNASGSGNTGNTGNAGGTDNTANAGNTGGASSGTGSANTPEPKYQDVPTDKNEKEQVSPIQEPAMGYGMALSKINLHNRQDTPLDEKNIITLDGKKQVAEGKKSPLPFSLDVENKLLDGYIAKMDKADKNAIRRRIESENKAKPLSEAELAEKIKEAVRKSYEFQQVMTSLENKIFHSNDGTTKATTRDLQYVDYGYYLANDANYLTVKTDKPKLWNSGPVGGVFYNGSTTAKELPTQDAVKYKGHWDFMTDVANKGNRFSEVKGTRQAGWWYGASSKDEYNRLLTDEKNKPDGYNGEYGHSSEFTVNFKEKKLTGGLFSNLQDSHKQKVTKTKRYDIDANIHGNRFRGSAIASDKEKDSETKHPFTSDAKDRLEGGFYGPKGEELAGKFLTDDNKLFGVFGAKQESKADKTEAILDAYALGAFNKNDANTFTPFTKKQLDNFGNAKKLVLGSTVINLVSTDATKNEFTEDKPKSATNKAGETLMVNDKVSVKTYGYGRNFEYLKFGELSVGGSHSVFLQGERTATTGDKAVPTEGKAKYLGNWVGYITGTGTGKSFNEAQDIADFDIDFKNKTVNGKLTTKGRTDPVFNITGEISGNGWTGKASTAKADAGGYNIDSNGTNKSIVIRDADVTGGFYGPNATEMGGSFTHNTNDSKASVVFGTKRQEEVKP
modifications: lipidated (processed by Lgt, Lsp, and Lnt)
protection of urea-unfolded purified TbpB from proteinase K with Skp (and LolA) added to empty liposomes, against SurA + Slam1 proteoliposomes (3.5% protection): ≤ 10%
